The text below walks through data of patent US7105636B1.

In this experiment the target is TGFβ receptor complex of wild type TβRII and kinase-deficient TβRI (KR) (Homo sapiens (Human)) (UniProt P37173). As to the kind of experiment: anti-Flag IP of [125I]TGFβ affinity-labelled receptors, gamma counting; reference: without Smad2.

With Flag-tagged hSARA1, the fold enhancement of receptor binding by coexpressed Smad2 is 2 fold.
